Measured values taken from patent US20170306005A1 (NASCIENT, published 2017).

T1: human tenascin-C rCd4-His-FBG (rat; human, UniProt P05540 207-392, limits assumed)
T1 construct: domain: domains 3 and 4; C-terminal FBG fusion; biotinylated in the ELISA and HTRF screens; also called Hu TNC; human TNC rCd4-His-FBG; not shown: 6His tag
T1 sequence (chain (part 1 of 2)): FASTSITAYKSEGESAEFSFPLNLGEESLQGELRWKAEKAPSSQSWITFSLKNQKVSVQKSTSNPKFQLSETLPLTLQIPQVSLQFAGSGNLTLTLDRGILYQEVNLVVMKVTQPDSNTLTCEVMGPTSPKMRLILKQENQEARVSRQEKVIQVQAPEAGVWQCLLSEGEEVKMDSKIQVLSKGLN
T1 sequence (chain (part 2 of 2)): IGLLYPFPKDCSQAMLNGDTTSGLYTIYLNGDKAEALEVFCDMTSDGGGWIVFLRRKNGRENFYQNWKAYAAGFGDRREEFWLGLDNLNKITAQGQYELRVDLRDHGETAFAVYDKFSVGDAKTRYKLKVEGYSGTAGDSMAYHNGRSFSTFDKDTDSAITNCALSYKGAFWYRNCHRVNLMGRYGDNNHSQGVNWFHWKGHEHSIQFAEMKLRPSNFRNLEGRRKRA

T2: mouse tenascin-C rCd4-His-FBG (rat; mouse, UniProt P05540 207-392, limits assumed)
T2 construct: domain: domains 3 and 4; C-terminal FBG fusion; biotinylated in the ELISA screen; also called Mu TNC; mouse TNC rCd4-His-FBG; not shown: 6His tag
T2 sequence (chain (part 1 of 2)): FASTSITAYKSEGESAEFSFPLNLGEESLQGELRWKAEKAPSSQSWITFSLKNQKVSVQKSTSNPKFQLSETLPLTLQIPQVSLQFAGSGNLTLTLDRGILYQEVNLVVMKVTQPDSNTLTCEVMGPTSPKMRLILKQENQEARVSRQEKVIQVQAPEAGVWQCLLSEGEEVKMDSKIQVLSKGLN
T2 sequence (chain (part 2 of 2)): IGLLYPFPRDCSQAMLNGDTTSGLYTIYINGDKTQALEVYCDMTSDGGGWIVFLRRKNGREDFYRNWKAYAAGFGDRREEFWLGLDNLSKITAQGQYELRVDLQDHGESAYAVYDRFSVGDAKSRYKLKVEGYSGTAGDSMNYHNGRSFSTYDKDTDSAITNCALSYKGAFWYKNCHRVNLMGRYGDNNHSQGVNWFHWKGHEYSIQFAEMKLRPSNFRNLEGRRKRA


Key:
[1] = biological target: T1, human tenascin-C rCd4-His-FBG; experiment: SPR off-rate screen, captured IgG4 supernatant, 25 C
Method: (§1) The 31 scFv of interest were sub-cloned into a human IgG4 expression vector for generation of antibodies as human IgG4 with a hinge-stabilising mutation (S241P; Angal et al, 1993). […] Briefly, surface plasmon resonance (SPR) experiments were performed using a BIAcore T100 instrument and followed the protocol according to the Human antibody capture kit protocol (GE, BR-1008-39). For off-rate screening, 10,000 response units (RU) of anti-human Fc IgG (GE, BR-1008-39) was immobilised on flow-cells (FC1 and FC2) of a Series 5 CM5 dextran sensor chip (BR-1005-30) using EDC/NHS cross-linking chemistry according to the amine coupling kit protocol (GE, BR-1000-50). Culture supernatants containing expressed IgG4 were diluted 1:2 with 2×PBS-T and injected into FC2 (flowrate 5 μl/min, 60 s contact time) to enable antibody capture at 25° C. […] A fixed concentration of antigen (15 nM of human and mouse TNC rCd4-His-FBG and 100 nM of human TNR rCd4-His-FBG) was injected with a flow-path via FC 1 (reference flow cell) and FC 2 (antibody capture flow cell), with a flow rate of 30 μl/min, and the association and dissociation phases measured over 1 and 5 min time periods, respectively. Regeneration of the binding surface employed 3M MgCl₂ with 30 s contact time. Off rates were determined by reference cell subtraction and fitting the sensogram experimental data assuming a 1:1 interaction using BIAevaluation software (GE, BR-1005-97).

[2] = biological target: T2, mouse tenascin-C rCd4-His-FBG; experiment: as above
Method: as §1

| koff [1] | koff [2] | Binder |
| --- | --- | --- |
| 0.000872 s⁻¹ | 0.00797 s⁻¹ | 165_13_A4 human IgG4 (antibody, V domains shown, human IgG4 with hinge S241P) VH: QVQLVESGGGLVQPGRSLRLSCAASGFTFDDYAMHWVRQAPGKGLEWVSGISGSGGSTYYADSVKGRFTISRDNAKNSLYLQMNSLRAEDTALYYCAKDKYPVLDTFDIWGQGTMVTVSS VL: DIQMTQSPASLPTPVGDRVTITCRASQYIQGFLNWYQQKPGKAPKLLIYDASNLETGVPSRFSGSGSGTDFTLTISSLQPEDFATYYCQQSYSTPQTFGQGTKVDIKR |
| 2.6e-05 s⁻¹ | 1 s⁻¹ | 180_11_F5 human IgG4 (antibody, V domains shown, human IgG4 with hinge S241P; also called Antibody 180 11 F5 (derived from B12)) VH: QVQLVESGGGLVQPGRSLRLSCAASGFTFDDYAMHWVRQAPGKGLEWVSGISGSGGSTYYADSVKGRFTISRDNAKNSLYLQMNSLRAEDTALYYCAKVMRTGLDTFDIWGQGTMVTVSS VL: DIQMTQSPASLPTPVGDRVTITCRASQYIQGFLNWYQQKPGKAPKLLIYDASNLETGVPSRFSGSGSGTDFTLTISSLQPEDFATYYCQQSYSTPQTFGQGTKVDIKR |
| 1.4e-06 s⁻¹ | 0.0577 s⁻¹ | 165_13_E1 human IgG4 (antibody, V domains shown, human IgG4 with hinge S241P) VH: QVQLVESGGGLVQPGRSLRLSCAASGFTFDDYAMHWVRQAPGKGLEWVSGISGSGGSTYYADSVKGRFTISRDNAKNSLYLQMNSLRAEDTALYYCAKDISAVMDVPQTWGQGTMVTVSS VL: DIQMTQSPASLPTPVGDRVTITCRASQYIQGFLNWYQQKPGKAPKLLIYDASNLETGVPSRFSGSGSGTDFTLTISSLQPEDFATYYCQQSYSTPQTFGQGTKVDIKR |
| 1.4e-06 s⁻¹ | 0.03 s⁻¹ | 165_13_B3 human IgG4 (antibody, V domains shown, human IgG4 with hinge S241P) VH: QVQLVESGGGLVQPGRSLRLSCAASGFTFDDYAMHWVRQAPGKGLEWVSGISGSGGSTYYADSVKGRFTISRDNAKNSLYLQMNSLRAEDTALYYCAKALARGHDTFDIWGQGTMVTVSS VL: DIQMTQSPASLPTPVGDRVTITCRASQYIQGFLNWYQQKPGKAPKLLIYDASNLETGVPSRFSGSGSGTDFTLTISSLQPEDFATYYCQQSYSTPQTFGQGTKVDIKR |
| 3.2e-07 s⁻¹ | 0.00098 s⁻¹ | 163_02_D11 human IgG4 (antibody, V domains shown, human IgG4 with hinge S241P; also called Antibody 163 02 D11 (derived from 2A5)) VH: EVRLVQSGAEVKKPGASVKVSCKVSGYTLTELSMHWVRQAPGKGLEWMGGFDPEDGETIYAQKFQGRVTMTEDTSTDTAYMELSSLRSEDTAVYYCATAQKETYALTYWGQGTLVTVSS VL: DIQMTQSPASLPTSVGDRVTITCRASQYIQGFLNWYQQKPGKAPRLLIYAASTLQDGVPSRFSGSGYGTDFTLTISSLQPEDFATYYCLHHYKSPWTFGQGTKVEIKR |

More lines, now with the values behind:

| Binder | koff [1] | koff [2] |
| --- | --- | --- |
| 160_01_D6 human IgG4 (antibody, V domains shown, human IgG4 with hinge S241P; also called Antibody 160 01 D6 (derived from 2A5)) VH: EVRLVQSGAEVKKPGASVKVSCKVSGYTLTELSMHWVRQAPGKGLEWMGGFDPEDGETIYAQKFQGRVTMTEDTSTDTAYMELSSLRSEDTAVYYCATAQADPHLFTYWGQGTLVTVSS VL: DIQMTQSPASLPTSVGDRVTITCRASQYIQGFLNWYQQKPGKAPRLLIYAASTLQDGVPSRFSGSGYGTDFTLTISSLQPEDFATYYCQQSYSTPWTFGQGTKVEIKR | 1.05e-05 s⁻¹ | 0.0559 s⁻¹ |
| 162_02_F4 human IgG4 (antibody, V domains shown, human IgG4 with hinge S241P; also called Antibody 162 02 F4 (derived from 2A5)) VH: EVRLVQSGAEVKKPGASVKVSCKVSGYTLTELSMHWVRQAPGKGLEWMGGFDPEDGETIYAQKFQGRVTMTEDTSTDTAYMELSSLRSEDTAVYYCATAQKETYALTYWGQGTLVTVSS VL: DIQMTQSPASLPTSVGDRVTITCRASQYIQGFLNWYQQKPGKAPRLLIYAASTLQDGVPSRFSGSGYGTDFTLTISSLQPEDFATYYCMHHYRSPWTFGQGTKVEIKR | 5.9e-07 s⁻¹ | 0.001 s⁻¹ |
| 162_02_C1 human IgG4 (antibody, V domains shown, human IgG4 with hinge S241P; also called Antibody 162 02 C1 (derived from 2A5)) VH: EVRLVQSGAEVKKPGASVKVSCKVSGYTLTELSMHWVRQAPGKGLEWMGGFDPEDGETIYAQKFQGRVTMTEDTSTDTAYMELSSLRSEDTAVYYCATAQKETYALTYWGQGTLVTVSS VL: DIQMTQSPASLPTSVGDRVTITCRASQYIQGFLNWYQQKPGKAPRLLIYAASTLQDGVPSRFSGSGYGTDFTLTISSLQPEDFATYYCLHHYRAPWTFGQGTKVEIKR | < 1e-05 s⁻¹ | 0.0016 s⁻¹ |
| 160_01_F1 human IgG4 (antibody, V domains shown, human IgG4 with hinge S241P; also called Antibody 160 01 F1 (derived from 2A5)) VH: EVRLVQSGAEVKKPGASVKVSCKVSGYTLTELSMHWVRQAPGKGLEWMGGFDPEDGETIYAQKFQGRVTMTEDTSTDTAYMELSSLRSEDTAVYYCATAQSPWSGMTYWGQGTLVTVSS VL: DIQMTQSPASLPTSVGDRVTITCRASQYIQGFLNWYQQKPGKAPRLLIYAASTLQDGVPSRFSGSGYGTDFTLTISSLQPEDFATYYCQQSYSTPWTFGQGTKVEIKR | 4e-06 s⁻¹ |  |
| 160_01_E3 human IgG4 (antibody, V domains shown, human IgG4 with hinge S241P; also called Antibody 160 01 E3 (derived from 2A5)) VH: EVRLVQSGAEVKKPGASVKVSCKVSGYTLTELSMHWVRQAPGKGLEWMGGFDPEDGETIYAQKFQGRVTMTEDTSTDTAYMELSSLRSEDTAVYYCATQRYVWEALTYWGQGTLVTVSS VL: DIQMTQSPASLPTSVGDRVTITCRASQYIQGFLNWYQQKPGKAPRLLIYAASTLQDGVPSRFSGSGYGTDFTLTISSLQPEDFATYYCQQSYSTPWTFGQGTKVEIKR |  | 0.0559 s⁻¹ |
| 162_02_C2 human IgG4 (antibody, V domains shown, human IgG4 with hinge S241P; also called Antibody 162 02 C2 (derived from 2A5)) VH: EVRLVQSGAEVKKPGASVKVSCKVSGYTLTELSMHWVRQAPGKGLEWMGGFDPEDGETIYAQKFQGRVTMTEDTSTDTAYMELSSLRSEDTAVYYCATAQKETYALTYWGQGTLVTVSS VL: DIQMTQSPASLPTSVGDRVTITCRASQYIQGFLNWYQQKPGKAPRLLIYAASTLQDGVPSRFSGSGYGTDFTLTISSLQPEDFATYYCMHHYRAPWTFGQGTKVEIKR | 1.15e-05 s⁻¹ | 0.0017 s⁻¹ |
| 161_01_C11 human IgG4 (antibody, V domains shown, human IgG4 with hinge S241P; also called Antibody 161 01 C11 (derived from 2A5)) VH: EVRLVQSGAEVKKPGASVKVSCKVSGYTLTELSMHWVRQAPGKGLEWMGGFDPEDGETIYAQKFQGRVTMTEDTSTDTAYMELSSLRSEDTAVYYCATAQKEWLPDVTWGQGTLVTVSS VL: DIQMTQSPASLPTSVGDRVTITCRASQYIQGFLNWYQQKPGKAPRLLIYAASTLQDGVPSRFSGSGYGTDFTLTISSLQPEDFATYYCQQSYSTPWTFGQGTKVEIKR | 2.2e-07 s⁻¹ |  |
| 163_02_A12 human IgG4 (antibody, V domains shown, human IgG4 with hinge S241P; also called Antibody 163 02 A12 (derived from 2A5)) VH: EVRLVQSGAEVKKPGASVKVSCKVSGYTLTELSMHWVRQAPGKGLEWMGGFDPEDGETIYAQKFQGRVTMTEDTSTDTAYMELSSLRSEDTAVYYCATAQKETYALTYWGQGTLVTVSS VL: DIQMTQSPASLPTSVGDRVTITCRASQYIQGFLNWYQQKPGKAPRLLIYAASTLQDGVPSRFSGSGYGTDFTLTISSLQPEDFATYYCLHHYREPWTFGQGTKVEIKR | 3.2e-07 s⁻¹ | 0.00094 s⁻¹ |
| 160_01_H4 human IgG4 (antibody, V domains shown, human IgG4 with hinge S241P; also called Antibody 160 01 H4 (derived from 2A5)) VH: EVRLVQSGAEVKKPGASVKVSCKVSGYTLTELSMHWVRQAPGKGLEWMGGFDPEDGETIYAQKFQGRVTMTEDTSTDTAYMELSSLRSEDTAVYYCATGRFVWEALTYWGQGTLVTVSS VL: DIQMTQSPASLPTSVGDRVTITCRASQYIQGFLNWYQQKPGKAPRLLIYAASTLQDGVPSRFSGSGYGTDFTLTISSLQPEDFATYYCQQSYSTPWTFGQGTKVEIKR | 1.6e-05 s⁻¹ | 0.0171 s⁻¹ |
